B1: LHG-10.4-D (antibody, human IgG1, V domains shown)
VH: EVQLVQPGAELRNSGASVKVSCKASGYRFTSYYIDWVRQAPGQGLEWMGRIDPEDGGTKYAQKFQGRVTFTADTSTSTAYVELSSLRSEDTAVYYCARNEWETVVVGDLMYEYEYWGQGTQVTVSS
VL: DIQMTQSPSSLSASLGDRVTITCQASQSISSYLAWYQQKPGQAPKLLIYGTSRLKTGVPSRFSGSGSGTSFTLTISGLEAEDAGTYYCQQYYSAPVTFGQGTKVELK
B2: LHG-10.5-D (antibody, human IgG1, V domains shown)
VH: EVQLVQPGAELRNSGASVKVSCKASGYRFTSYYIDWVRQAPGQGLEWMGRIDPEDGGTKYAQKFQGRVTFTADTSTSTAYVELSSLRSEDTAVYYCARNEWETVVVGDLMYEYEYWGQGTQVTVSS
VL: DIQMTQSPSSLSPSLGDRVTITCQASQTISSFLAWYHQKPGQPPKLLIYRASIPQTGVPSRFSGSGSGTSFTLTIGGLEAEDAGTYYCQQYVSAPPTFGQGTKVELK
B3: LHG-10.4 (antibody, human IgG1, V domains shown)
VH: EVQLVQPGAELRNSGASVKVSCKASGYRFTSYYIDWVRQAPGQGLEWMGRIDPEDGGTKYAQKFQGRVTFTADTSTSTAYVELSSLRSEDTAVYYCARNEWETVVVGDLMYEYEYWGQGTQVTVSS
VL: DIQMTQSPSSLSASLGDRVTITCQASQSISSYLAWYQQKPGQAPKLLIYGTSRLKTGVPSRFSGSGSGTSFTLTISGLEAEDAGTYYCQQYYSAPVTFGQGTKVELK
notes: VK-shuffled variant of LHG-10, human IgG1
B4: LHG-10.5 (antibody, human IgG1, V domains shown)
VH: EVQLVQPGAELRNSGASVKVSCKASGYRFTSYYIDWVRQAPGQGLEWMGRIDPEDGGTKYAQKFQGRVTFTADTSTSTAYVELSSLRSEDTAVYYCARNEWETVVVGDLMYEYEYWGQGTQVTVSS
VL: DIQMTQSPSSLSPSLGDRVTITCQASQTISSFLAWYHQKPGQPPKLLIYRASIPQTGVPSRFSGSGSGTSFTLTIGGLEAEDAGTYYCQQYVSAPPTFGQGTKVELK
notes: as for B3
B5: LHG-10.6 (antibody, human IgG1, V domains shown)
VH: EVQLVQPGAELRNSGASVKVSCKASGYRFTSYYIDWVRQAPGQGLEWMGRIDPEDGGTKYAQKFQGRVTFTADTSTSTAYVELSSLRSEDTAVYYCARNEWETVVVGDLMYEYEYWGQGTQVTVSS
VL: DIQMTQSPSSLSASLGDRVTITCQASQSISSYLAWYQQKPGQAPNILIYGASRLKTGVPSRFSGSGSGTSFTLTISGLEAEDAGTYYCQQYASVPVTFGQGTKVELK
notes: as for B3
B6: LHG-10.6-D (antibody, human IgG1, V domains shown)
VH: EVQLVQPGAELRNSGASVKVSCKASGYRFTSYYIDWVRQAPGQGLEWMGRIDPEDGGTKYAQKFQGRVTFTADTSTSTAYVELSSLRSEDTAVYYCARNEWETVVVGDLMYEYEYWGQGTQVTVSS
VL: DIQMTQSPSSLSASLGDRVTITCQASQSISSYLAWYQQKPGQAPNILIYGASRLKTGVPSRFSGSGSGTSFTLTISGLEAEDAGTYYCQQYASVPVTFGQGTKVELK
notes: also called LHG-10.6N297Q
B7: LHG-10.3 (antibody, human IgG1, V domains shown)
VH: EVQLVQPGAELRNSGASVKVSCKASGYRFTSYYIDWVRQAPGQGLEWMGRIDPEDGGTKYAQKFQGRVTFTADTSTSTAYVELSSLRSEDTAVYYCARNEWETVVVGDLMYEYEYWGQGTQVTVSS
VL: DIQMTQSPSSLSASLGDRVTITCQASQSIVSYLAWYQQKPGQAPKLLIYGASRLQTGVPSRFSGSGSGTSFTLTISGLEAEDAGTYYCQQYASAPVTFGQGTGVELK
notes: as for B3
B8: LHG-10.3-D (antibody, human IgG1, V domains shown)
VH: EVQLVQPGAELRNSGASVKVSCKASGYRFTSYYIDWVRQAPGQGLEWMGRIDPEDGGTKYAQKFQGRVTFTADTSTSTAYVELSSLRSEDTAVYYCARNEWETVVVGDLMYEYEYWGQGTQVTVSS
VL: DIQMTQSPSSLSASLGDRVTITCQASQSIVSYLAWYQQKPGQAPKLLIYGASRLQTGVPSRFSGSGSGTSFTLTISGLEAEDAGTYYCQQYASAPVTFGQGTGVELK
B9: LHG-10-D (antibody, human IgG1, V domains shown)
VH: EVQLVQPGAELRNSGASVKVSCKASGYRFTSYYIDWVRQAPGQGLEWMGRIDPEDGGTKYAQKFQGRVTFTADTSTSTAYVELSSLRSEDTAVYYCARNEWETVVVGDLMYEYEYWGQGTQVTVSS
VL: DIQMTQSPTSLSASLGDRVTITCQASQSISSYLAWYQQKPGQAPKLLIYGASRLQTGVPSRFSGSGSGTSFTLTISGLEAEDAGTYYCQQYDSLPVTFGQGTKVELK
B10: MHGARP8 (antibody, V domains shown)
VH: QVQLKESGPGLVAPSQSLSITCTVSGFSLTGYGINWVRQPPGKGLEWLGMIWSDGSTDYNSVLTSRLRISKDNSNSQVFLKMNSLQVDDTARYYCARDRNYYDYDGAMDYWGQGTSVTVSS
VL: DIQVTQSSSYLSVSLGDRVTITCKASDHIKNWLAWYQQKPGIAPRLLVSGATSLEAGVPSRFSGSGSGKNFTLSITSLQTEDVATYYCQQYWSTPWTFGGGTTLEIR
notes: biotinylated for FACS; also called MHG-8

Each binder was assayed against T1, recombinant soluble human GARP-TGFβ1 complex (human, UniProt Q14392 20-628; P01137 30-390) (assay: SPR (Biacore), hGARP-TGFβ1 immobilised).
T1 construct: co-expressed in HEK293E, purified by the Strep-Tag; TGFβ consists of LAP and mature TGFβ; also called shGARP-TGFβ; rhGARP-TGFβ
T1 sequence (Q14392 other isoform, or with tags, fused parts or gaps limits assumed, chain 1 of 2): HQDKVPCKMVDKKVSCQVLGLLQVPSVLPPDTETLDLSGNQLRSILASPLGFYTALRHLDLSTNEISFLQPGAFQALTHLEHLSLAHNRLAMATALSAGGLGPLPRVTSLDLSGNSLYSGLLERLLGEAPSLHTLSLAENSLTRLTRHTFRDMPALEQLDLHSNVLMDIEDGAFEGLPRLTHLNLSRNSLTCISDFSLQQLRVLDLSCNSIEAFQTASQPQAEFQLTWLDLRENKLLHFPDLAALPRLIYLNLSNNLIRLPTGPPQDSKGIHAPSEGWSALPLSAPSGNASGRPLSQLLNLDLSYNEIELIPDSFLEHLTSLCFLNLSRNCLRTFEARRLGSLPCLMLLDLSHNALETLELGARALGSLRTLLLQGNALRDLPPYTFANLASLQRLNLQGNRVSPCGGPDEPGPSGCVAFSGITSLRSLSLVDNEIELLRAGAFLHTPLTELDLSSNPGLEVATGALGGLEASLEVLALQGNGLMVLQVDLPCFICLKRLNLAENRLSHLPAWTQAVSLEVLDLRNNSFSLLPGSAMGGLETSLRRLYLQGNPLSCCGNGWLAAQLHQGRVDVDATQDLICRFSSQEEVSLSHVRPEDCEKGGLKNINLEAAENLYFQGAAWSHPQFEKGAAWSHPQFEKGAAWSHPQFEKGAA
T1 sequence (P01137 30-390 limits assumed, chain 2 of 2): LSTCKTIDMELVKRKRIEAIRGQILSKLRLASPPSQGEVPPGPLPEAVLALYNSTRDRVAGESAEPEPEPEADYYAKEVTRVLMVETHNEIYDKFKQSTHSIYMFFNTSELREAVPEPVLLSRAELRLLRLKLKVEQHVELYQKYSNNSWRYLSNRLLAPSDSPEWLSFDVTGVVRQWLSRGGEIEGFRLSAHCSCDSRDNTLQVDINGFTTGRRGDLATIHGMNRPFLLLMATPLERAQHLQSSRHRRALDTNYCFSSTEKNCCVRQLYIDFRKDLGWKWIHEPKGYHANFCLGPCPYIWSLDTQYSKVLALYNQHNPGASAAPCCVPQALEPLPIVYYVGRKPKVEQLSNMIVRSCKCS
B1 was tested, and the Kd was 0.0327 nM, the “fold improvement of KD (reference LHG-10-D)” value was 5.7 fold and the “fold improvement of ka (reference LHG-10-D)” value was 0.4 fold. For the same binder, the “fold improvement of kd (reference LHG-10-D)” value was 2.2 fold, the koff was 1.21e-05 s⁻¹ and the kon was 371000 M⁻¹ s⁻¹. For B2, the Kd was 0.028 nM, the “fold improvement of KD (reference LHG-10-D)” value was 6.6 fold and the “fold improvement of ka (reference LHG-10-D)” value was 0.4 fold. The “fold improvement of kd (reference LHG-10-D)” value was 2.4 fold, the koff was 1.07e-05 s⁻¹ and the kon was 383000 M⁻¹ s⁻¹. B3 was tested, and the Kd was 0.0291 nM, the “fold improvement of KD (reference LHG-10)” value was 4.5 fold and the “fold improvement of ka (reference LHG-10)” value was 0.5 fold. The “fold improvement of kd (reference LHG-10)” value was 2.4 fold, the koff was 1.3e-05 s⁻¹ and the kon was 448000 M⁻¹ s⁻¹. For B4, the Kd was 0.0331 nM, the “fold improvement of KD (reference LHG-10)” value was 4 fold and the “fold improvement of ka (reference LHG-10)” value was 0.6 fold. For the same binder, the “fold improvement of kd (reference LHG-10)” value was 2.3 fold, the koff was 1.37e-05 s⁻¹ and the kon was 415000 M⁻¹ s⁻¹. In the case of B5, the Kd is reported as 0.0159 nM, the “fold improvement of KD (reference LHG-10)” value is reported as 8.2 fold and the “fold improvement of ka (reference LHG-10)” value is reported as 0.9 fold. The “fold improvement of kd (reference LHG-10)” value was 7.1 fold, the koff was 4.4e-06 s⁻¹ and the kon was 276000 M⁻¹ s⁻¹. In the case of B6, the Kd is reported as 0.0216 nM, the “fold improvement of KD (reference LHG-10-D)” value is reported as 8.6 fold and the “fold improvement of ka (reference LHG-10-D)” value is reported as 0.5 fold. For the same binder, the “fold improvement of kd (reference LHG-10-D)” value was 4.3 fold, the koff was 6.15e-06 s⁻¹ and the kon was 284000 M⁻¹ s⁻¹. For B7, the Kd was 0.0222 nM, the “fold improvement of KD (reference LHG-10)” value was 5.9 fold and the “fold improvement of ka (reference LHG-10)” value was 0.8 fold. The “fold improvement of kd (reference LHG-10)” value was 4.9 fold, the koff was 6.38e-06 s⁻¹ and the kon was 287000 M⁻¹ s⁻¹. In the case of B8, the Kd is reported as 0.0224 nM, the “fold improvement of KD (reference LHG-10-D)” value is reported as 8.3 fold and the “fold improvement of ka (reference LHG-10-D)” value is reported as 0.6 fold. For the same binder, the “fold improvement of kd (reference LHG-10-D)” value was 5.1 fold, the koff was 5.18e-06 s⁻¹ and the kon was 231000 M⁻¹ s⁻¹. With B9 the Kd was 0.185 nM, the “fold improvement of KD (reference LHG-10-D)” value was 1 fold and the “fold improvement of ka (reference LHG-10-D)” value was 1 fold. The “fold improvement of kd (reference LHG-10-D)” value was 1 fold, the koff was 2.62e-05 s⁻¹ and the kon was 142000 M⁻¹ s⁻¹.

Each binder was assayed against T2, human TGF-β1 (latent) (human, UniProt P01137 30-390) (assay: FACS, 293T + hTGFB1 only [cont.) B]).
T2 construct: from transfected hTGFB1; also called hTGF-β1; hTGFB1
T2 sequence (P01137 30-390 limits assumed): as the sequence (P01137 30-390 limits assumed, chain 2 of 2) above
Source text: No latent TGF-β is detected on their surface with an anti-LAP antibody. Transfection of GARP or TGFB1 alone induces no or low surface LAP, respectively, whereas co-transfection of GARP and TGFB1 induces high surface LAP as a result of latent TGF-β1 binding and presentation by GARP (FIG. 14, part B, left histograms).
B10: no binding.

Source: patent US20160251438A1 (LUDWIG INSTITUTE FOR CANCER RESEARCH, published 2016)
